53 substances from patent publication US10472401B2, “Peptides and combination of peptides for use in immunotherapy against ovarian cancer and other cancers” (immatics biotechnologies GmbH, priority 2015, dated 2019) can be followed below.

For the assay, the target named is HLA-A*02:01 (Homo sapiens, UniProt P04439, D140Y/D185E/D98H/E176V/E277Q/G131W/G231S/I119V/I121R/I166T/I218V/L300P/L318F/N151K/N90K/P208A/P217A/Q86G/Q94H/R138H/R169H/T345S). In words: MHC binding assay (UV-ligand exchange, ELISA of stabilized MHC complexes). Conditions: MHC class I binding score; binding to HLA-A*02:01 ranged by peptide exchange yield (UV-ligand exchange, ELISA). In outline:
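Binding scored as exchange yield, detected via β2m of stabilized complexes in an HRP/TMB ELISA read at 450 nm after streptavidin capture of 100-fold diluted monomers for 1 h at 37 °C. Complexes came from UV irradiation cleaving a photolabile peptide, exchanged for the candidate.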
Take “589 (KLYPQLPAEI; listed as Homo sapiens) [compound 589]”: the Peptide exchange entry is on record as “″+++″ (≥50% = +++)”. For “281 (ILRESTEEL; listed as Homo sapiens) [compound 281]”, the Peptide exchange result was “″+++″ (≥50% = +++)”. In the case of “305 (SIANFSEFYV; listed as Homo sapiens) [compound 305]”, the Peptide exchange entry is reported as “″++++″ (≥75% = ++++)”.

Consider “230 (ILVDWLVEV; listed as Homo sapiens) [compound 230]”, for which the Peptide exchange entry is on record as “″+″ (≥10% = +)”. As for “115 (AIAGAGILYGV; listed as Homo sapiens) [compound 115]”, the Peptide exchange entry is recorded as “″++″ (≥20% = ++)”.

In the case of “481 (GLIEDYEALL; listed as Homo sapiens) [compound 481]”, the Peptide exchange entry is reported as “″+++″ (≥50% = +++)”. The same measure for “377 (FLLDSSASV; listed as Homo sapiens) [compound 377]”: “″++″ (≥20% = ++)”; for “39 (SVAPNLPAV; listed as Homo sapiens) [compound 39]”: “″+++″ (≥50% = +++)”.

With “289 (VLLEIEDLQV; listed as Homo sapiens) [compound 289]”, the Peptide exchange entry is on record as “″++++″ (≥75% = ++++)”. Consider “40 (TLLVKVFSV; listed as Homo sapiens) [compound 40]”, for which the Peptide exchange entry is “″+++″ (≥50% = +++)”. The same measure for “278 (QLLDVVLTI; listed as Homo sapiens) [compound 278]”: “″++″ (≥20% = ++)”; for “313 (VLFDDELLMV; listed as Homo sapiens) [compound 313]”: “″+++″ (≥50% = +++)”; for “432 (TLIEESAKV; listed as Homo sapiens) [compound 432]”: “″++″ (≥20% = ++)”. The same measure for “484 (SLIEKVTQL; listed as Homo sapiens) [compound 484]”: “″+++″ (≥50% = +++)”; for “177 (YLLPEEYTSTL; listed as Homo sapiens) [compound 177]”: “″++++″ (≥75% = ++++)”. The value for “13 (YLMDESLNL; listed as Homo sapiens) [compound 13]” was “″+++″ (≥50% = +++)”. As for “19 (FMVDNEAIYDI; listed as Homo sapiens) [compound 19]”, the Peptide exchange entry is recorded as “″++++″ (≥75% = ++++)”. The same measure for “397 (YLFGERLLEC; listed as Homo sapiens) [compound 397]”: “″+++″ (≥50% = +++)”; for “454 (KLPPPPPQA; listed as Homo sapiens) [compound 454]”: “″+++″ (≥50% = +++)”.

As for “86 (NLIGKIENV; listed as Homo sapiens) [compound 86]”, the Peptide exchange result was “″+++″ (≥50% = +++)”. The value for “223 (ALLENIALYL; listed as Homo sapiens) [compound 223]” was “″+++″ (≥50% = +++)”; that for “496 (FLVEKQPPQV; listed as Homo sapiens) [compound 496]” was “″+++″ (≥50% = +++)”; that for “544 (LLWDVPAPSL; listed as Homo sapiens) [compound 544]” was “″+++″ (≥50% = +++)”. “442 (GLLGGGGVLGV; listed as Homo sapiens) [compound 442]”: the Peptide exchange entry was “″+++″ (≥50% = +++)”.

“262 (LLWGDLIWL; listed as Homo sapiens) [compound 262]”: the Peptide exchange result is recorded as “″+++″ (≥50% = +++)”.

Turning to “402 (VLFSGALLGL; listed as Homo sapiens) [compound 402]”, the Peptide exchange entry is listed as “″++″ (≥20% = ++)”.

As to “282 (LLADVVPTT; listed as Homo sapiens) [compound 282]”, the Peptide exchange entry was “″+++″ (≥50% = +++)”.

On to “288 (NLINEINGV; listed as Homo sapiens) [compound 288]”, for which the Peptide exchange entry was “″+++″ (≥50% = +++)”.

Turning to “224 (TLIDAQWVL; listed as Homo sapiens) [compound 224]”, the Peptide exchange entry was “″+++″ (≥50% = +++)”. “61 (FLQGYQLHL; listed as Homo sapiens) [compound 61]”: the Peptide exchange result was “″++++″ (≥75% = ++++)”.

Take “587 (VMNDRLYAI; listed as Homo sapiens) [compound 587]”: the Peptide exchange entry is recorded as “″+++″ (≥50% = +++)”.

As to “242 (AIAYILQGV; listed as Homo sapiens) [compound 242]”, the Peptide exchange result is listed as “″++″ (≥20% = ++)”. The value for “119 (FLYIGDIVSL; listed as Homo sapiens) [compound 119]” was “″++++″ (≥75% = ++++)”; that for “583 (ILANDGVLLAA; listed as Homo sapiens) [compound 583]” was “″+++″ (≥50% = +++)”; that for “5 (HLTEVYPEL; listed as Homo sapiens) [compound 5]” was “″+++″ (≥50% = +++)”. The same measure for “184 (YLMDINGKMWL; listed as Homo sapiens) [compound 184]”: “″+++″ (≥50% = +++)”; for “266 (KITDTLIHL; listed as Homo sapiens) [compound 266]”: “″+++″ (≥50% = +++)”; for “586 (KLKPGDLVGV; listed as Homo sapiens) [compound 586]”: “″+++″ (≥50% = +++)”. The value for “271 (LVYPLELYPA; listed as Homo sapiens) [compound 271]” was “″+++″ (≥50% = +++)”; that for “608 (SLLSVSHAL; listed as Homo sapiens) [compound 608]” was “″+++″ (≥50% = +++)”. For the substance “337 (HLLSELEAAPYL; listed as Homo sapiens) [compound 337]”, the Peptide exchange entry is “″++++″ (≥75% = ++++)”. For the substance “261 (YVLEFLEEI; listed as Homo sapiens) [compound 261]”, the Peptide exchange result was “″++″ (≥20% = ++)”.

As to “356 (KLLGKLPEL; listed as Homo sapiens) [compound 356]”, the Peptide exchange entry was “″+++″ (≥50% = +++)”. The same measure for “27 (ILADIVISA; listed as Homo sapiens) [compound 27]”: “″+++″ (≥50% = +++)”.

As to “321 (GLFEDVTQPGILL; listed as Homo sapiens) [compound 321]”, the Peptide exchange entry was “″++++″ (≥75% = ++++)”.

With “190 (FLSSLTETI; listed as Homo sapiens) [compound 190]”, the Peptide exchange result was “″+++″ (≥50% = +++)”. The same measure for “612 (YLYNEGLSV; listed as Homo sapiens) [compound 612]”: “″+++″ (≥50% = +++)”.

With “185 (FLIDDKGYTL; listed as Homo sapiens) [compound 185]”, the Peptide exchange result was “″++″ (≥20% = ++)”.

“194 (ALPLFVITV; listed as Homo sapiens) [compound 194]”: the Peptide exchange entry was “″+++″ (≥50% = +++)”. The same measure for “334 (TLTKVLVAL; listed as Homo sapiens) [compound 334]”: “″+++″ (≥50% = +++)”.

As to “393 (GLLDTQTSQVLTA; listed as Homo sapiens) [compound 393]”, the Peptide exchange result is “″++″ (≥20% = ++)”. For “472 (KLLEVSDDPQV; listed as Homo sapiens) [compound 472]”, the Peptide exchange entry is given as “″+++″ (≥50% = +++)”. The same measure for “49 (YLPAVFEEV; listed as Homo sapiens) [compound 49]”: “″+++″ (≥50% = +++)”.
